# B1: thermostable TPL (TTPL) (Symbiobacterium sp. SC-1) (protein)
# chain: MQRPWAEPYKIKAVEPIRMTTREYREQAIREAGYNTFLLRSEDVYIDLLTDSGTNAMSDRQWGALMMGDEAYAGARSFFRLEEAVREIYGFKYVVPTHQGRGAEHLISRILIKPGDYIPGNMYFTTTRTHQELQGGTFVDVIIDEAHDPQANHPFKGNVDIAKFEALIDRVGADKIPYINVALTVNMAGGQPVSMANLREVRKVCDRHGIRMWSDATRAVENAYFIKEREEGYQDKPVREILKEMMSYFDGCTMSGKKDCLVNIGGFLAMNEEWILQKAREQVVIFEGMPTYGGLAGRDMEAIAQGIYEMVDDDYIAHRIHQVRYLGEQLLEAGIPIVQPIGGHAVFLDARAFLPHIPQDQFPAQALAAALYVDSGVRAMERGIVSAGRNPQTGEHNYPKLELVRLTIPRRVYTDRHMDVVAYSVKHLWKERDTIRGLRMVYEPPTLRFFTARFEPIS
# notes: His-tagged, pSHCE plasmid, expressed in E. coli DH5alpha with pGESS; cloning primer starts … (M-Q-R-P)
# Substrate: N[C@@H](Cc1ccc(O)cc1)C(=O)O
# Assay: purified protein
# Assay type: biochemical, Symbiobacterium sp. SC-1
# Details: 50 mM potassium phosphate, 50 µM PLP; pH 8.0; 60.0 °C
protein,measurement,value
B1,Km,270 ± 10 µM
same,kcat,0.15 ± 0.01 s⁻¹
same,kcat/Km,550 ± 10 M⁻¹ s⁻¹
